Patent US20260242478A1 (published 2026)

Columns and labels:
[1] = biological target: T1, Anti-CD28 Fab (SEQ ID NOs: 696, 697); experiment: phage binding ELISA on captured anti-CD28 Fab; competitor CD28 antigen pre-incubated in the wells
T1 construct: Biotinylated and captured on neutravidin coated plates in the phage ELISA
T1 sequence (VH, as listed by the source, chain 1 of 2): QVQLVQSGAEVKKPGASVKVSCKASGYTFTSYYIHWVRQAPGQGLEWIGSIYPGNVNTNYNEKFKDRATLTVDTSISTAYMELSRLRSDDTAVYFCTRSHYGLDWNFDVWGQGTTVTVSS
T1 sequence (VL, as listed by the source, chain 2 of 2): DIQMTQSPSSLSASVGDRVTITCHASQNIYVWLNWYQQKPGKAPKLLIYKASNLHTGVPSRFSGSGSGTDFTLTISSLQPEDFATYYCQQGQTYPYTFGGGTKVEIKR
Experimental: (§1) Clonal phage were harvested as crude supematants and screened via standard ELISAs. […] Prior to the addition of clonal phage, wells were incubated with blocking buffer and CD28 antigen or blocking buffer alone. Without washing or aspirating, clonal phage supematants were then added to the wells and incubated for a short time. Wells were then washed followed by detection of bound phage using a horse radish conjugated anti-M13 antibody.

[2] = biological target: T1, Anti-CD28 Fab (SEQ ID NOs: 696, 697); experiment: phage binding ELISA; clonal phage on biotinylated anti-CD28 Fab captured on neutravidin, anti-M13-HRP detection
Experimental: as §1

[3] = biological target: T2, Anti-CD28 Fab (SEQ ID NOs: 696, 697); experiment: phage binding ELISA on plate-captured anti-CD28 Fab pre-incubated with CD28 antigen (competitor: CD28)
T2 construct: In the phage ELISA the Fab was biotinylated and captured on neutravidin coated plates
T2 sequence (VH, as listed by the source, chain 1 of 2): as the sequence (VH, as listed by the source, chain 1 of 2) above
T2 sequence (VL, as listed by the source, chain 2 of 2): as the sequence (VL, as listed by the source, chain 2 of 2) above
Experimental: as §1

[4] = biological target: T2, Anti-CD28 Fab (SEQ ID NOs: 696, 697); experiment: phage binding ELISA; clonal phage on plate-captured biotinylated anti-CD28 Fab, anti-M13 HRP detection
Experimental: as §1

[5] = biological target: T3, Anti-CD28 Fab (SEQ ID NOs: 696, 697); experiment: phage binding ELISA on captured anti-CD28 Fab; competitor: CD28 antigen pre-incubated in the well;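 also: clonal phage supernatants added briefly to wells preblocked with or without CD28, bound phage detected through an HRP-linked anti-M13 antibody, wells with blocking buffer alone as comparison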
T3 construct: Biotinylated and captured on neutravidin coated plates in the phage ELISA
T3 sequence (VH, as listed by the source, chain 1 of 2): as the sequence (VH, as listed by the source, chain 1 of 2) above
T3 sequence (VL, as listed by the source, chain 2 of 2): as the sequence (VL, as listed by the source, chain 2 of 2) above
Experimental: (§2) Clonal phage were harvested as crude supematants and screened via standard ELISAs. […] Prior to the addition of clonal phage, wells were incubated with blocking buffer and CD28 antigen or blocking buffer alone. Without washing or aspirating, clonal phage supematants were then added to the wells and incubated for a short time. Wells were then washed followed by detection of bound phage using a horse radish conjugated anti-M13 antibody. Clonal phage of interest were then sent for sequence analysis.

[6] = biological target: T3, Anti-CD28 Fab (SEQ ID NOs: 696, 697); experiment: phage binding ELISA; biotinylated anti-CD28 Fab on neutravidin plate, clonal phage detected with anti-M13-HRP;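 also: crude clonal phage supernatants added briefly to wells preincubated in blocking buffer with or without CD28 antigen, then washed before detection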
Experimental: as §2

[7] = biological target: Anti-CD28 Fab (SEQ ID NOs: 696, 697); experiment: phage binding ELISA; Fab-coated wells pre-incubated with CD28 antigen as competitor;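 also: clonal phage supernatants added to wells preincubated with CD28 antigen or blocking buffer only, bound phage detected with HRP-conjugated anti-M13 antibody, buffer-only wells as control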
Target sequence in this assay (VH, as listed by the source, chain 1 of 2): as the sequence (VH, as listed by the source, chain 1 of 2) above
Target sequence in this assay (VL, as listed by the source, chain 2 of 2): as the sequence (VL, as listed by the source, chain 2 of 2) above
Experimental: as §1

[8] = biological target: Anti-CD28 Fab (SEQ ID NOs: 696, 697); experiment: phage binding ELISA; biotinylated Fab on neutravidin plate, bound phage detected with anti-M13-HRP
Target sequence in this assay (VH, as listed by the source, chain 1 of 2): as the sequence (VH, as listed by the source, chain 1 of 2) above
Target sequence in this assay (VL, as listed by the source, chain 2 of 2): as the sequence (VL, as listed by the source, chain 2 of 2) above
Experimental: as §1

Binder	Anti-CD28 Fab signal in the presence of CD28 [1]	Anti-CD28 Fab (SEQ ID NOs: 696, 697) signal [2]	Anti-CD28 Fab signal in the presence of CD28 [3]	Anti-CD28 Fab (SEQ ID NOs: 696, 697) signal [4]	Anti-CD28 Fab signal in the presence of CD28 (phage binding ELISA) [5]	Anti-CD28 Fab signal (phage binding ELISA) [6]	also measured
LCSAGATYPWPWCM (peptide, not shown: large carriers) [Phage-1505]	0.06	1.64					
TCAAGAHYEWPMCY (peptide, not shown: large carriers) [Phage-1510]	0.12	1.61					
LCAAGAAYPWPMCL [Phage-1520 (Peptide-92 library sequence, SEQ ID NO: 1816)]			0.06	1.59			
NCSAGATWPWPMCF (tested as crude phage supernatant) [Phage-1553]					0.1	1.49	
PCAAGAMWAWPYCL (tested as crude phage supernatant) [Phage-1552]					0.05	1.49	
TCAAGAHWIWPWCE (peptide, not shown: large carriers) [Phage-1513]	0.07	1.61					
TCAAGATWLWPVCL [Phage-1593]							Anti-CD28 Fab signal in the presence of CD28 [7]: 0.08; Anti-CD28 Fab signal [8]: 1.39
SCAAGATYEWPRCL (peptide, not shown: large carriers) [Phage-1515]	0.07	1.6					
TCAAGATYTWPTCF (tested as crude phage supernatant) [Phage-1555]					0.05	1.48	
TCAAGAGWQWPMCF (peptide, not shown: large carriers) [Phage-1514]	0.11	1.6					
TCAAGAMYQWPECF (tested as crude phage supernatant) [Phage-1557]					0.06	1.48	
MCSAGATYPWPYCL (peptide, not shown: large carriers) [Phage-1504]	0.1	1.64					
SCAAGAHYKWPVCI (tested as crude phage supernatant) [Phage-1547]					0.06	1.51	
TCSAGATYKWPVCL (tested as crude phage supernatant) [Phage-1559]					0.06	1.47	
TCAAGAYYAWPMCL (peptide, not shown: large carriers) [Phage-1517]	0.07	1.59					
SCSAGATYEWPYCF (tested as crude phage supernatant) [Phage-1560]					0.06	1.47	
SCAAGAQYGWPMCL [Phage-1523 (Peptide-92 library sequence, SEQ ID NO: 1819)]			0.05	1.59			
SCAAGATYEWPICL [Phage-1521 (Peptide-92 library sequence, SEQ ID NO: 1817)]			0.05	1.59			
GCAAGANYPWPLCL (peptide, not shown: large carriers) [Phage-1516]	0.05	1.59					
LCAAGFNYPWPLCL [Phage-1530 (Peptide-92 library sequence, SEQ ID NO: 1826)]			0.05	1.57			
QCAAGAMWTWPVCF (tested as crude phage supernatant) [Phage-1550]					0.07	1.5	
WCAAGASYPWPWCL [Phage-1524 (Peptide-92 library sequence, SEQ ID NO: 1820)]			0.05	1.58			
TCAAGVHFGWPLCF (tested as crude phage supernatant) [Phage-1554]					0.07	1.49	

Binder	Anti-CD28 Fab signal in the presence of CD28 [1]	Anti-CD28 Fab (SEQ ID NOs: 696, 697) signal [2]	Anti-CD28 Fab signal in the presence of CD28 [3]	Anti-CD28 Fab (SEQ ID NOs: 696, 697) signal [4]	Anti-CD28 Fab signal in the presence of CD28 (phage binding ELISA) [5]	Anti-CD28 Fab signal (phage binding ELISA) [6]	also measured
SCSAFFHFHWPACL [Phage-1594]							Anti-CD28 Fab signal in the presence of CD28 [7]: 0.06; Anti-CD28 Fab signal [8]: 1.38
SCAAGATFHWPMCF [Phage-1526 (Peptide-92 library sequence, SEQ ID NO: 1822)]			0.09	1.57			
TCAAGAHYTWPTCL (tested as crude phage supernatant) [Phage-1558]					0.07	1.47	
TCAAGATYPWPECM [Phage-1529 (Peptide-92 library sequence, SEQ ID NO: 1825)]			0.06	1.57			
SCAAGAAWGWPACF [Phage-1592]							Anti-CD28 Fab signal in the presence of CD28 [7]: 0.09; Anti-CD28 Fab signal [8]: 1.39
TCAAGASWEWPACL (tested as crude phage supernatant) [Phage-1556]					0.08	1.48	
ICAAGFIWSWPACF (tested as crude phage supernatant) [Phage-1548]					0.08	1.51	
TCSAGFSYKWPWCL [Phage-1527 (Peptide-92 library sequence, SEQ ID NO: 1823)]			0.06	1.57			
LCSAGAMYQWPTCL (peptide, not shown: large carriers) [Phage-1508]	0.06	1.63					
TCAAGAHYLWPHCL (tested as crude phage supernatant) [Phage-1551]					0.12	1.5	
TCTAVFPYEWPRCL [Phage-1525 (Peptide-92 library sequence, SEQ ID NO: 1821)]			0.07	1.57			
TCSAGAAYAWPYCL [Phage-1519 (Peptide-92 library sequence, SEQ ID NO: 1815)]			0.07	1.59			
TCAAGATWPWPSCL (peptide, not shown: large carriers) [Phage-1512]	0.08	1.61					
TCSAGAEYTWPLCF [Phage-1591]							Anti-CD28 Fab signal in the presence of CD28 [7]: 0.08; Anti-CD28 Fab signal [8]: 1.4
SCAAGAPYPWPECL [Phage-1518 (Peptide-92 library sequence, SEQ ID NO: 1814)]			0.07	1.59			
SCSAVFSYAWPTCL (peptide, not shown: large carriers) [Phage-1511]	0.08	1.61					
TCAAGAMWTWPECL [Phage-1528 (Peptide-92 library sequence, SEQ ID NO: 1824)]			0.07	1.57			
MCTAGATYPWPACL [Phage-1531 (Peptide-92 library sequence, SEQ ID NO: 1827)]			0.07	1.56			
WCTAGFSYKLSICL (peptide, not shown: large carriers) [Phage-1507]	0.06	1.63					
SCAAGAMWPWPVCV [Phage-1522 (Peptide-92 library sequence, SEQ ID NO: 1818)]			0.07	1.59			
TCSAGANYEWPWCF (peptide, not shown: large carriers) [Phage-1509]	0.06	1.62					
DCWGDAPYPWRVCL (peptide, not shown: large carriers) [Phage-1506]	0.07	1.64					
TCAAGATYSWPDCF (tested as crude phage supernatant) [Phage-1549]					0.06	1.51	
